Source: paper PMC6939996 (Nature, 2019)

B1: Snu56 (in the purified U1 snRNP of the Ubc4 E complex) (natural protein, S. cerevisiae)
chain: MRPRRRGLAYHHTKPKGQLSQGHYPTTSNDGQRRKVGNSEAFQSFDIWKNLDRIRSTKKNAGQFIKGSLLILPMRTEDKQQFDECMDELHKYISKDILRCYPQKEQKDEGMLFYIVLKDFNILDSCFVLSVLLAFQKRLWMAPSEKSYFRVPKNINLTGSFYLPKNIETGRGHIITSYRREQPSSSIVEVGFNVVPDFQQFQVKACHVSKFMNELSNFFSQVEFGKCEANVINYFKREYNRTYSQISLALYELPLIGDGLFDIKSYISKTRPIIETSKAQMIKHISEMKAYNEISGLQGDQFPRQQRPLSNSPSSNSISSSQTIEAGATSYQTQPQRHAVNKPSNVLNSSNRHSGPKTFEDGRYSEGNKPGFMTQDEIKQHCIGTIKASMDAVKKKSSYQILKTYVRCPRQNYIDIVYQNLNDLRSKTNCNIVVLNLNNLHESQMWLESLNTTNYTIFAQAPHPSTIRVISIGGVGEYIVKALELILNILEH
B2: U1-70K (in the purified U1 snRNP of the Ubc4 E complex) (natural protein, S. cerevisiae)
chain: MNYNLSKYPDDVSRLFKPRPPLSYKRPTDYPYAKRQTNPNITGVANLLSTSLKHYMEEFPEGSPNNHLQRYEDIKLSKIKNAQLLDRRLQNWNPNVDPHIKDTDPYRTIFIGRLPYDLDEIELQKYFVKFGEIEKIRIVKDKITQKSKGYAFIVFKDPISSKMAFKEIGVHRGIQIKDRICIVDIERGRTVKYFKPRRLGGGLGGRGYSNRDSRLPGRFASASTSNPAERNYAPRLPRRETSSSAYSADRYGSSTLDARYRGNRPLLSAATPTAAVTSVYKSRNSRTRESQPAPKEAPDY
B3: Luc7 (in the purified U1 snRNP of the Ubc4 E complex) (natural protein, S. cerevisiae)
chain: MSTMSTPAAEQRKLVEQLMGRDFSFRHNRYSHQKRDLGLHDPKICKSYLVGECPYDLFQGTKQSLGKCPQMHLTKHKIQYEREVKQGKTFPEFEREYLAILSRFVNECNGQISVALQNLKHTAEERMKIQQVTEELDVLDVRIGLMGQEIDSLIRADEVSMGMLQSVKLQELISKRKEVAKRVRNITENVGQSAQQKLQVCEVCGAYLSRLDTDRRLADHFLGKIHLGYVKMREDYDRLMKNNRTTNASKTATTLPGRRFV
B4: Snu71 (in the purified U1 snRNP of the Ubc4 E complex) (natural protein, S. cerevisiae, UniProt P53207 1-620, looked up)
chain: MRDIVFVSPQLYLSSQEGWKSDSAKSGFIPILKNDLQRFQDSLKHIVDARNSLSETLLNSNDDGSIHNSDQNTGLNKDKEASIADNNSANKCATSSSRYQELKQFLPISLDQQIHTVSLQGVSSSFSRGQIESLLDHCLNLALTETQSNSALKVEAWSSFSSFLDTQDIFIRFSKVDEDEAFVNTLNYCKALFAFIRKLHEDFKIELHLDLNTKEYVEDRTGTIPSVKPEKASEFYSVFKNIEDQTDERNSKKEQLDDSSTQYKVDTNTLSDLPSDALDQLCKDIIEFRTKVVSIEKEKKMKSTYEESRRQRHQMQKVFDQIRKNHSGAKGSANTEEEDTNMEDEDEEDDTEDDLALEKRKEERDLEESNRRYEDMLHQLHSNTEPKIKSIRADIMSAENYEEHLEKNRSLYLKELLHLANDVHYDHHRSFKEQEERRDEEDRAKNGNAKELAPIQLSDGKAISAGKAAAITLPEGTVKSENYNADKNVSESSEHVKIKFDFKKAIDHSVESSSEDEGYRESELPPTKPSERSAAEDRLPFTADELNIRLTNLKESRYVDELVREFLGVYEDELVEYILENIRVNQSKQALLNELRETFDEDGETIADRLWSRKEFRLGT
B5: Prp40 (in the purified U1 snRNP of the Ubc4 E complex) (natural protein)
chain: MSIWKEAKDASGRIYYYNTLTKKSTWEKPKELISQEELLLRENGWKAAKTADGKVYYYNPTTRETSWTIPAFEKKVEPIAEQKHDTVSHAQVNGNRIALTAGEKQEPGRTINEEESQYANNSKLLNVRRRTKEEAEKEFITMLKENQVDSTWSFSRIISELGTRDPRYWMVDDDPLWKKEMFEKYLSNRSADQLLKEHNETSKFKEAFQKMLQNNSHIKYYTRWPTAKRLIADEPIYKHSVVNEKTKRQTFQDYIDTLIDTQKESKKKLKTQALKELREYLNGIITTSSSETFITWQQLLNHYVFDKSKRYMANRHFKVLTHEDVLNEYLKIVNTIENDLQNKLNELRLRNYTRDRIARDNFKSLLREVPIKIKANTRWSDIYPHIKSDPRFLHMLGRNGSSCLDLFLDFVDEQRMYIFAQRSIAQQTLIDQNFEWNDADSDEITKQNIEKVLENDRKFDKVDKEDISLIVDGLIKQRNEKIQQKLQNERRILEQKKHYFWLLLQRTYTKTGKPKPSTWDLASKELGESLEYKALGDEDNIRRQIFEDFKPESSAPTAESATANLTLTASKKRHLTPAVELDY

Tests used:
Experiment in all cases: cross-linking
BBP/Mud2 dimer = target: T1, BBP/Mud2 dimer (S. cerevisiae, UniProt Q12186 1-476; P36084 1-527)
T1 sequence (looked up) 1: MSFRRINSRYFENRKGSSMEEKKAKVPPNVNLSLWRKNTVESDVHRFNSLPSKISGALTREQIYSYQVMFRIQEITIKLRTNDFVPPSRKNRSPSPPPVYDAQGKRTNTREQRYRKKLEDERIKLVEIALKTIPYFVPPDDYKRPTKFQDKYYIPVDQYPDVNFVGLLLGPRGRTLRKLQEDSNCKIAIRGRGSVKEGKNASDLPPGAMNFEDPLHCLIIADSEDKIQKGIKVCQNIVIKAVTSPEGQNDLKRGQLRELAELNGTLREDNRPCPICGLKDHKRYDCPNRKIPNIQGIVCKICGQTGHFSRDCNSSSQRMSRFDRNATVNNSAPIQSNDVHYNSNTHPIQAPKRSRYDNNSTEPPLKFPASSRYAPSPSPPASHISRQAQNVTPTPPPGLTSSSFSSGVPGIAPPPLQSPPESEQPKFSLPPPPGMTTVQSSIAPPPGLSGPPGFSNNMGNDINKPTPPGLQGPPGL
T1 sequence (looked up) 2: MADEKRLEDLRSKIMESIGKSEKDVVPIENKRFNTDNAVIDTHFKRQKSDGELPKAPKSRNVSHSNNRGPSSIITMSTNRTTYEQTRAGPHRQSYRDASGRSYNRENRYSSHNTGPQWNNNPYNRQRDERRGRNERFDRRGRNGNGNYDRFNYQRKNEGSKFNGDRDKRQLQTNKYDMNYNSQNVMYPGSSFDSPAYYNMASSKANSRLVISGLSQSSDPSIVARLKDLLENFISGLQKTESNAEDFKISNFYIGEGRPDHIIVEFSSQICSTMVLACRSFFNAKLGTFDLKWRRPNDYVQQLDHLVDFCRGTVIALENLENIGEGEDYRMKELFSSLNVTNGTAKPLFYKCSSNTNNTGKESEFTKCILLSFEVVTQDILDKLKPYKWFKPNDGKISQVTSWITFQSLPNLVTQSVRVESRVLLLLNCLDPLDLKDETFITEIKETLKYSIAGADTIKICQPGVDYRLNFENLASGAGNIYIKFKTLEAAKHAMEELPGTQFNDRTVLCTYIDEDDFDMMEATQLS

[1] = target: B5
[2] = target: B4

B1
binding result (BBP/Mud2 dimer): binds

B2
binding result [1]: binds

B3
binding result (BBP/Mud2 dimer): binds
binding result [1]: binds

B4
binding result (BBP/Mud2 dimer): binds

B5
binding result (BBP/Mud2 dimer): binds
binding result [2]: binds
